From patent publication US20260167699A1 (Chugai, published 2026) come the findings set out here.

As a reminder, the Kd is the free concentration of one partner at which half of the binding sites on the other are occupied at equilibrium, for simple one-to-one binding. A higher Kd goes with a looser complex.

Experiment [1] has as its target T1, FcγRIa extracellular domain with C-terminal His tag (human, UniProt P12314 16-292).
T1 construct: extracellular domain
In words: SPR (Biacore), captured antibody, FcγR analyte, 1:1 Langmuir fit. A general note: SPR reads the build-up and loss of mass on a sensor chip optically.
Description: (§1) The antibody of interest was analyzed for its interaction with FcγR using a BiaCore™ T100, BiaCore™ A100, or BiaCore™ 4000 surface plasmon resonance system (GE Healthcare Japan Corp.). The running buffer used was HBS-EP+ (GE Healthcare Japan Corp.). The assay temperature was set to 25° C. The sensor chips used were: a chip prepared by immobilizing antigenic peptides onto Series S Sensor Chip CM5 (GE Healthcare Japan Corp.) by the amine coupling method; a chip prepared by immobilizing antigenic peptides biotinylated in advance onto Series S Sensor Chip SA (certified) (GE Healthcare Japan Corp.) through their interaction; a chip prepared by immobilizing protein L (ACTIGEN, BioVision, Inc.) onto Series S Sensor Chip CM5 (GE Healthcare Japan Corp.); and a chip prepared by immobilizing protein A/G (Thermo Fisher Scientific K.K.) onto Series S Sensor Chip CM5 (GE Healthcare Japan Corp.). The antibody of interest was captured onto any of these chips and allowed to interact with FcγR diluted with a running buffer. The antibody captured on the chip was washed off through the reaction of 10 mM glycine-HCl (pH 1.5) to regenerate the chip, which was repetitively used.

The target of experiment [2] is T2, FcγRIIa(R) extracellular domain with C-terminal His tag (human, UniProt P12318 34-217).
T2 construct: extracellular domain; polymorphic form R131; also called FcγRIIa R type
T2 sequence: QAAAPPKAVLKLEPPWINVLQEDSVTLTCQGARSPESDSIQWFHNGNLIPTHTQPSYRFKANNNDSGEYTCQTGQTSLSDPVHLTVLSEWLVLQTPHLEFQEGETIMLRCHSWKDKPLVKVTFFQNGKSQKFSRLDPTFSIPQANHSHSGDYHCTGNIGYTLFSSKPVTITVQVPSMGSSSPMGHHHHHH
The description is as above.
Description: as §1

Experiment [3] addresses T3, FcγRIIa(H) extracellular domain with C-terminal His tag (human, UniProt P12318 34-217).
T3 construct: extracellular domain; polymorphic form H131; also called FcγRIIa H type
T3 sequence: T2 sequence with R134H
The description is as above.
Description: as §1

Experiment [4] concerns the target T4, FcγRIIb extracellular domain with C-terminal His tag (human, UniProt P31994 43-217).
T4 construct: extracellular domain
T4 sequence: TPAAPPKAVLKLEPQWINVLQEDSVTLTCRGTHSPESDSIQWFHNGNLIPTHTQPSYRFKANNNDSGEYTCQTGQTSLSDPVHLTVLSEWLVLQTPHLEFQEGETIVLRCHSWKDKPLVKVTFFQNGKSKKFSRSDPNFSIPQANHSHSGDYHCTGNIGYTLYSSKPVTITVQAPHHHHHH
Described as above.
Description: as §1

Experiment [5] concerns the target T5, FcγRIIIa(F) extracellular domain with C-terminal His tag (human, UniProt P08637 17-208).
T5 construct: extracellular domain; polymorphic form F158; also called FcγRIIIa F type
The description is as above.
Description: as §1

Experiment [6] has as its target T6, FcγRIIIa(V) extracellular domain with C-terminal His tag (human, UniProt P08637 17-208).
T6 construct: extracellular domain; polymorphic form V158; also called FcγRIIIa V type
Described as above.
Description: as §1

In experiment [7] the target is T1, FcγRIa extracellular domain with …. The experiment is described as above. This is another data set of the same source.
Description: as §1
The target in experiment [8] is T2, FcγRIIa(R) extracellular domain with …. The experiment is described as above. The source holds these as a separate data set.
Description: as §1
Experiment [9] concerns the target T3, FcγRIIa(H) extracellular domain with …. The description is as above. The source holds these as a separate data set.
Description: as §1
The target of experiment [10] is T4, FcγRIIb extracellular domain with …. The description is as above. The source holds these as a separate data set.
Description: as §1
In experiment [11] the target is T5, FcγRIIIa(F) extracellular domain with …. Described as above. This is another data set of the same source.
Description: as §1
Experiment [12] concerns the target T6, FcγRIIIa(V) extracellular domain with …. The experiment is described as above. This is another data set of the same source.
Description: as §1
Experiment [13] has as its target T7, FcγRIIIaV (human, UniProt P08637 17-208).
T7 construct: extracellular domain
In words: SPR (Biacore), antibody captured, FcγR as analyte, 1:1 Langmuir fit.
Description: as §1

In experiment [14] the target is T8, FcγRIIIa (human, UniProt P08637 17-208).
T8 construct: extracellular domain; also called 3a
Put plainly: SPR (Biacore T100), antibody captured on protein L chip, FcγRIIIa as analyte, TBS(+), 25 C, 1:1 Langmuir fit.
T8 sequence (P08637 other isoform, or with tags, fused parts or gaps): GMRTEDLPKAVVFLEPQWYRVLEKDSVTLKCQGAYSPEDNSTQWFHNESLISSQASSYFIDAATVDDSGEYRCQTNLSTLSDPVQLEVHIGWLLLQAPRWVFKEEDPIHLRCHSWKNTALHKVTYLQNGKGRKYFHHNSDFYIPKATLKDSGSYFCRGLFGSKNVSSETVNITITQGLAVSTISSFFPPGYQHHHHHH
Description: Specifically, their interaction with FcγRIIIa was analyzed using BiaCore™ T100 surface plasmon resonance system (GE Healthcare Japan Corp.). The running buffer used was the TBS(+) solution used in the preceding paragraph. The assay temperature was set to 25° C. Protein L was immobilized onto Series S Sensor Chip CM4 (GE Healthcare Japan Corp.) by the amine coupling method to prepare a chip. Each antibody of interest was captured onto the protein L-immobilized chip and allowed to interact with FcγRIIIa diluted with a running buffer. The antibody captured on the chip was washed off through the reaction of 10 mM glycine-HCl (pH 1.5) to regenerate the chip, which was repetitively used.
Each antibody was evaluated for its binding activity against FcγRIIIa with binding activity against FcγRIIIa and dissociation constant for FcγRIIIa as main indexes. […] Specifically, a sensorgram obtained by assay using BiaCore™ surface plasmon resonance Evaluation Software was globally fit into the 1:1 Langmuir model to calculate an association rate constant ka (L/mol/s) and a dissociation rate constant kd (1/s). From these values, the dissociation constant KD (mol/L) was calculated.

In experiment [15] the target is T9, FcγRIa (human, UniProt P12314 16-292).
T9 construct: extracellular domain; also called 1a
Put plainly: SPR, relative to GpH7-A5/GpH7-B3/GpL16-k0 =100.

The target of experiment [16] is T10, FcγRIIa(R) (human, UniProt P12318 34-217).
T10 construct: extracellular domain; also called 2aR
T10 sequence: T2 sequence
In words: SPR, relative to GpH7-A5/GpH7-B3/GpL16-k0 =100.

The target in experiment [17] is T11, FcγRIIa(H) (human, UniProt P12318 34-217).
T11 construct: extracellular domain; also called 2aH
T11 sequence: T2 sequence with R134H
Put plainly: SPR, relative to GpH7-A5/GpH7-B3/GpL16-k0 =100.

In experiment [18] the target is T12, FcγRIIb (human, UniProt P31994 43-217).
T12 construct: extracellular domain; also called 2b
T12 sequence: T4 sequence
In words: SPR, relative to GpH7-A5/GpH7-B3/GpL16-k0 =100.

The target of experiment [19] is T13, FcγRIIIa (human, UniProt P08637 17-208).
T13 construct: extracellular domain; also called 3a
Put plainly: SPR, relative to GpH7-A5/GpH7-B3/GpL16-k0 =100.

Residue numbers refer to the chain shown, from its start. Read-outs that look alike come from different tables or passages of the source.

T9 sequence (P12314 other isoform, or with tags, fused parts or gaps): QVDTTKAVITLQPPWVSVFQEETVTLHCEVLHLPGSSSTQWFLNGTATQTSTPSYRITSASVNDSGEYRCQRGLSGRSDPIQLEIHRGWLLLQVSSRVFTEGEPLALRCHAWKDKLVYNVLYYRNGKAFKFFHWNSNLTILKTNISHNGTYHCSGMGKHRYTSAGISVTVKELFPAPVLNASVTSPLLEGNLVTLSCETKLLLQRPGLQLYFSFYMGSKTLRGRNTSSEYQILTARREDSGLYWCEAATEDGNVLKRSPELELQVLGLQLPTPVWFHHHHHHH
T1 sequence (P12314 other isoform, or with tags, fused parts or gaps): as above
T6 sequence (P08637 other isoform, or with tags, fused parts or gaps): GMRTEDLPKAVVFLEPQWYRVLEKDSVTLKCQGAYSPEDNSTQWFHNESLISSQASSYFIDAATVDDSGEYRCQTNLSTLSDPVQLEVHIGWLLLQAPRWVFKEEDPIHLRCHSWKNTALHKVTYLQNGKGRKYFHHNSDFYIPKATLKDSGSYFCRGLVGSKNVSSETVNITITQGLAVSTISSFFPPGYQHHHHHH

B1: H240-Kn033/H240-Hl033/L73-k0 (antibody, human IgG1, kappa)
heavy 1: not shown
heavy 2: not shown
light: DIQMTQSPSSLSASVGDRVTITCRASQDIHKYIAWYQQKPGQAPRLLIQYTSTLQPGVPSRFSGSGSGTDYTFTISSLQPEDIATYYCLQYEQLRTFGGGTKVEIKRTVAAPSVFIFPPSDEQLKSGTASVVCLLNNFYPREAKVQWKVDNALQSGNSQESVTEQDSKDSTYSLSSTLTLSKADYEKHKVYACEVTHQGLSSPVTKSFNRGEC
notes: anti-epiregulin IgG1, knobs-into-holes control; also called H240-Kn033/H240-HI033/L73-k0
As for B1, the Kd was found to be 0.00025 µM in experiment [1]; 1 µM in experiment [2]; 0.93 µM in [3]; 4.1 µM in experiment [4]; 2.6 µM in [5]; 0.39 µM in experiment [6]. For the same molecule, the Kd in [7] amounted to 0.00025 µM; in [8], 1 µM; in experiment [9], 0.93 µM; in experiment [10], 4.1 µM; in experiment [11], 2.6 µM; in [12] it was 0.39 µM.

B2: H240-G1dE/H240-G1dE/L73 (antibody, human IgG1, kappa)
heavy: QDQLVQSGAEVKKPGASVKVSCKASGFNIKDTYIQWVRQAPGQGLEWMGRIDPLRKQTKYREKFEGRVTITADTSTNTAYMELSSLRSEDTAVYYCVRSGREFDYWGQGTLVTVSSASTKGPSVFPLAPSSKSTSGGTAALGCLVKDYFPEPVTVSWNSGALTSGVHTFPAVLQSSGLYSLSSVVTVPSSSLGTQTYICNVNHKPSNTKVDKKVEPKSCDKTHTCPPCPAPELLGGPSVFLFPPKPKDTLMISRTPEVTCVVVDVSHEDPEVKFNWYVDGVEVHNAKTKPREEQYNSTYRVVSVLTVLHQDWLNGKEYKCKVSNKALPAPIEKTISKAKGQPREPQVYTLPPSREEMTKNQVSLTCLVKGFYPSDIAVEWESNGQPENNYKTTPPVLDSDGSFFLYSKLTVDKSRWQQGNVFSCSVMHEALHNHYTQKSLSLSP
light: B1 light
notes: anti-EREG antibody with constant regions derived from human natural IgG1; also called IgG1; naturally occurring IgG1
B2: the Kd in experiment [13] came to 0.34 µM; in experiment [14] it was 0.29 µM.

B3: H240-Kn125-ma1/H240-Hl076/L73 (antibody, human IgG1, kappa)
heavy 1: QDQLVQSGAEVKKPGASVKVSCKASGFNIKDTYIQWVRQAPGQGLEWMGRIDPLRKQTKYREKFEGRVTITADTSTNTAYMELSSLRSEDTAVYYCVRSGREFDYWGQGTLVTVSSASTKGPSVFPLAPSSKSTSGGTAALGCLVKDYFPEPVTVSWNSGALTSGVHTFPAVLQSSGLYSLSSVVTVPSSSLGTQTYICNVNHKPSNTKVDKKVEPKSCDKTHTCPPCPAPELLGGPSVFLFPPKPKDTLMISRTPEVTCVVVDVSHEEPEVKFNWYVDGVEVHNAKTKPREEQYNSTYRVVSVLTVLHQDWLNGKEYKCKVSNDALPMPIEETISKAKGQPREPQVYTLPPSRCELTKNQVSLSCAVKGFYPSDIAVEWESNGQPENNYKTTPPVLDSDGSFFLVSKLTVDKSRWQQGNVFSCSVMHEALHNHYTQKSLSLSP
heavy 2: QDQLVQSGAEVKKPGASVKVSCKASGFNIKDTYIQWVRQAPGQGLEWMGRIDPLRKQTKYREKFEGRVTITADTSTNTAYMELSSLRSEDTAVYYCVRSGREFDYWGQGTLVTVSSASTKGPSVFPLAPSSKSTSGGTAALGCLVKDYFPEPVTVSWNSGALTSGVHTFPAVLQSSGLYSLSSVVTVPSSSLGTQTYICNVNHKPSNTKVDKKVEPKSCDKTHTCPPCPAPEYQWGPMVFLFPPKPKDTLMISRTPEVTCVVVDVSGCRGDCLEPEVKFNWYVDGVEVHNAKTKPREEQYNATYRVVSVLTVLHQDWLNGKEYKCKVSNKALPAPIEKTISKAKGQPREPQVCTLPPSRDELTKNQVSLWCLVKGFYPSDIAVEWESNGQPENNYKTTPPVLDSDGSFFLYSKLTVDKSRWQQGNVFSCSVMHEALHNHYTQKSLSLSP
light: B1 light
notes: heterodimerized anti-EREG antibody with the RGD peptide inserted in a loop region of the H240-Kn125 chain; also called H240-Kn125-ma1/H240-HI076/L73
Molecule B3 displayed a dissociation constant (Kd) in [14] of 0.16 µM.

B4: H240-Kn125/H240-Hl076/L73-k0 (antibody, human IgG1, kappa)
heavy 1: QDQLVQSGAEVKKPGASVKVSCKASGFNIKDTYIQWVRQAPGQGLEWMGRIDPLRKQTKYREKFEGRVTITADTSTNTAYMELSSLRSEDTAVYYCVRSGREFDYWGQGTLVTVSSASTKGPSVFPLAPSSKSTSGGTAALGCLVKDYFPEPVTVSWNSGALTSGVHTFPAVLQSSGLYSLSSVVTVPSSSLGTQTYICNVNHKPSNTKVDKKVEPKSCDKTHTCPPCPAPEYQWGPMVFLFPPKPKDTLMISRTPEVTCVVVDVSDEEPEVKFNWYVDGVEVHNAKTKPREEQYNATYRVVSVLTVLHQDWLNGKEYKCKVSNKALPAPIEKTISKAKGQPREPQVCTLPPSRDELTKNQVSLWCLVKGFYPSDIAVEWESNGQPENNYKTTPPVLDSDGSFFLYSKLTVDKSRWQQGNVFSCSVMHEALHNHYTQKSLSLSP
heavy 2: B3 heavy 1
light: B1 light
notes: heterodimerized anti-epiregulin IgG1
Regarding B4, the Kd was 0.00024 µM in [7]; 0.38 µM in experiment [8]; 0.19 µM in experiment [9]; 4.2 µM in experiment [10]; 0.0012 µM in experiment [11]; 0.00037 µM in experiment [12].

B5: GpH7-A5/GpH7-B3 variant A327_01G/GpL16-k0 (antibody, human IgG1, kappa)
heavy 1: not shown
heavy 2: not shown
light: DIVMTQSPLSLPVTPGEPASISCQASESLVHSNRNTYLHWYLQKPGQSPQLLIYKVSNRFSGVPDRFSGSGSGTDFTLKISRVEAEDVGVYYCSQNTHVPPTFGQGTKVEIERTVAAPSVFIFPPSDEQLKSGTASVVCLLNNFYPREAKVQWKVDNALQSGNSQESVTEQDSKDSTYSLSSTLTLSKADYEKHKVYACEVTHQGLSSPVTKSFNRGEC
notes: He Ab: heterodimerized IgG1, one H chain mutated
Take B5: the “He/Con 1a” value in experiment [15] was found to be 101%. The “He/Con 2aR” value in experiment [16] turned out to be 126%. For the same molecule, the “He/Con 2aH” value in experiment [17] is 115%. The “He/Con 2b” value in experiment [18] worked out at 144%. The “He/Con 3a” value in [19] stood at 74.4%.

B6: GpH7-A5/GpH7-B3 variant L328_10E/GpL16-k0 (antibody, human IgG1, kappa)
heavy 1: not shown
heavy 2: not shown
light: B5 light
notes: as for B5
For the molecule B6, the “He/Con 1a” value in [15] was determined as 104%. The “He/Con 2aR” value in experiment [16] turned out to be 136%. For the same molecule, the “He/Con 2aH” value in experiment [17] was determined as 65.7%. The “He/Con 2b” value in experiment [18] stood at 215%. Further, the “He/Con 3a” value in experiment [19] was determined as 54.9%.

B7: GpH7-A5/GpH7-B3 variant S324_20W/GpL16-k0 (antibody, human IgG1, kappa)
heavy 1: not shown
heavy 2: not shown
light: B5 light
notes: as for B5
For the molecule B7, in experiment [15], the “He/Con 1a” value worked out at 108%. Also, the “He/Con 2aR” value in experiment [16] was determined as 106%. Moreover, in experiment [17], the “He/Con 2aH” value came out at 114%. Moreover, in experiment [18], the “He/Con 2b” value came out at 114%. Also, the “He/Con 3a” value in [19] stood at 111%.

B8: GpH7-A5/GpH7-B3 variant S324_05P/GpL16-k0 (antibody, human IgG1, kappa)
heavy 1: not shown
heavy 2: not shown
light: B5 light
notes: as for B5
With B8, the “He/Con 1a” value in experiment [15] was 97.8%. For the same molecule, the “He/Con 2aR” value in experiment [16] is 94.6%. The “He/Con 2aH” value in experiment [17] came to 57.8%. The “He/Con 2b” value in experiment [18] amounted to 106%. Moreover, in experiment [19], the “He/Con 3a” value amounted to 72.3%.
